The stoichiometry N is the number of molecules, sites or subunits per partner or assembly.

Our source for the stoichiometry N values is publication PMC3561135.

Test in all cases: SEC; size exclusion chromatography of the purified six-His-tagged recombinant proteins; data not shown; conditions not given
Background: In gel filtration, larger molecules generally elute earlier.

Test [1] addresses Schistosoma mansoni phytochelatin synthase, N- and C-truncated form (PCS66-300) (Schistosoma mansoni).
The target of test [2] is Schistosoma mansoni phytochelatin synthase, N-truncated protein (PCS66-591) (Schistosoma mansoni).
Test [3] has as its target Schistosoma mansoni phytochelatin synthase, full length protein (PCS1-591) (Schistosoma mansoni).

“Schistosoma mansoni phytochelatin synthase, N- and C-truncated form (PCS66-300) (domain or fragment)”: the stoichiometry N in test [1] was found to be 2. With “Schistosoma mansoni phytochelatin synthase, N-truncated protein (PCS66-591) (domain or fragment)”, the stoichiometry N in test [2] was 2.

Take “Schistosoma mansoni phytochelatin synthase, full length protein (PCS1-591) (enzyme)”: in test [3], the stoichiometry N turned out to be 2.
